# Source: US12384850 (SYSTIMMUNE, dated 2025)
# B1: SI-35E24 (bispecific antibody, not shown: small tags and cut ends)
# heavy (part 1 of 7): DIQMTQSPSTLSASVGDRVTITCQSSQSVYSNWFSWYQQKPGKAPKLLIYSASTLASGVPSRFSGSGSGTEFTLTISSLQPDDFATYYCAGGYNTVIDTFAFGGGTKVEIK
# heavy (part 2 of 7): EVQLLESGGGLVQPGGSLRLSCAASGIDFSRRYYMCWVRQAPGKGLEWIACIYTGSRDTPHYASSAKGRFTISRDNSKNTLYLQMNSLRAEDTAVYYCAREGSLWGQGTLVTVSS
# heavy (part 3 of 7): not shown
# heavy (part 4 of 7): EVQLVESGGGLVQPGGSLRLSCAASGFSLNNYWMSWVRQAPGKGLEWIGTISSGAYTWFATWATGRFTISRDNSKNTLYLQMNSLRAEDTAVYYCARYSSTTDWTYFNIWGQGTLVTVSS
# heavy (part 5 of 7): DIQMTQSPSTLSASVGDRVTITCQASQSINNYLAWYQQKPGKAPKLLIYRASTLESGVPSRFSGSGSGTEFTLTISSLQPDDFATYYCQSYNGVGRTAFGGGTKVEIK
# heavy (part 6 of 7): EVQLVESGGGLVQPGGSLRLSCAASGFTISTNAMSWVRQAPGKGLEWIGVITGRDITYYASWAKGRFTISRDNSKNTLYLQMNSLRAEDTAVYYCARDGGSSAITSNNIWGQGTLVTVSS
# heavy (part 7 of 7): DVVMTQSPSTLSASVGDRVTINCQASESISSWLAWYQQKPGKAPKLLIYEASKLASGVPSRFSGSGSGTEFTLTISSLQPDDFATYYCQGYFYFISRTYVNSFGGGTKVEIK
# light: AYDMTQSPSSVSASVGDRVTIKCQASEDIYSFLAWYQQKPGKAPKLLIHSASSLASGVPSRFSGSGSGTDFTLTISSLQPEDFATYYCQQGYGKNNVDNAFGGGTKVEIKRTVAAPSVFIFPPSDEQLKSGTASVVCLLNNFYPREAKVQWKVDNALQSGNSQESVTEQDSKDSTYSLSSTLTLSKADYEKHKVYACEVTHQGLSSPVTKSFNRGEC
# notes: Tetra-specific; the listing has only VHv3/VLv2; also called SI-3524
# B2: SI-35E20 (bispecific antibody, not shown: small tags and cut ends)
# heavy (part 1 of 7): DVVMTQSPSSVSASVGDRVTITCQASQNIRTYLSWYQQKPGKAPKLLIYAAANLASGVPSRFSGSGSGTDFTLTISDLEPGDAATYYCQSTYLGTDYVGGAFGGGTKVEIK
# heavy (part 2 of 7): RSLVESGGGLVQPGGSLRLSCTASGFTISSYHMQWVRQAPGKGLEYIGTISSGGNVYYASSARGRFTISRPSSKNTVDLQMNSLRAEDTAVYYCARDSGYSDPMWGQGTLVTVSS
# heavy (part 3 of 7): not shown
# heavy (part 4 of 7): EVQLLESGGGLVQPGGSLRLSCAASGFTISRYHMTWVRQAPGKGLEWIGHIYVNNDDTDYASSAKGRFTISRDNSKNTLYLQMNSLRAEDTATYFCARLDVGGGGAYIGDIWGQGTLVTVSS
# heavy (part 5 of 7): DIQMTQSPSSLSASVGDRVTITCQSSQSVYNNNDLAWYQQKPGKVPKLLIYYASTLASGVPSRFSGSGSGTDFTLTISSLQPEDVATYYCAGGYDTDGLDTFAFGGGTKVEIK
# heavy (part 6 of 7): B1 heavy (part 6 of 7)
# heavy (part 7 of 7): B1 heavy (part 7 of 7)
# light: B1 light
# notes: Tetra-specific; the listing has only VHv3/VLv2
# B3: SI-35E25 (bispecific antibody, not shown: small tags and cut ends)
# heavy (part 1 of 7): ALVMTQSPSTLSASVGDRVTINCQASEDIDTYLAWYQQKPGKAPKLLIFYASDLASGVPSRFSGSGSGTEFTLTISSLQPDDFATYYCQGGYYTSSADTRGAFGGGTKVEIK
# heavy (part 2 of 7): QSLVESGGGLVQPGGSLRLSCAASGFSFSSNYWICWVRQAPGKGLEWIACIYVGSSGDTYYASSAKGRFTISRDNSKNTLYLQMNSLRAEDTAVYYCARDSSSYYMFNLWGQGTLVTVSS
# heavy (part 3 of 7): not shown
# heavy (part 4 of 7): B1 heavy (part 4 of 7)
# heavy (part 5 of 7): B1 heavy (part 5 of 7)
# heavy (part 6 of 7): B1 heavy (part 6 of 7)
# heavy (part 7 of 7): B1 heavy (part 7 of 7)
# light: B1 light
# notes: as for B2
# B4: SI-35E26 (bispecific antibody, not shown: small tags and cut ends)
# heavy (part 1 of 7): B2 heavy (part 1 of 7)
# heavy (part 2 of 7): B2 heavy (part 2 of 7)
# heavy (part 3 of 7): not shown
# heavy (part 4 of 7): B1 heavy (part 4 of 7)
# heavy (part 5 of 7): B1 heavy (part 5 of 7)
# heavy (part 6 of 7): B1 heavy (part 6 of 7)
# heavy (part 7 of 7): B1 heavy (part 7 of 7)
# light: B1 light
# notes: as for B2
# B5: SI-35E19 (bispecific antibody, not shown: small tags and cut ends)
# heavy (part 1 of 7): B3 heavy (part 1 of 7)
# heavy (part 2 of 7): B3 heavy (part 2 of 7)
# heavy (part 3 of 7): not shown
# heavy (part 4 of 7): B2 heavy (part 4 of 7)
# heavy (part 5 of 7): B2 heavy (part 5 of 7)
# heavy (part 6 of 7): B1 heavy (part 6 of 7)
# heavy (part 7 of 7): B1 heavy (part 7 of 7)
# light: B1 light
# notes: as for B2
# Molecular target: T1, human PD-L1 (human, UniProt Q9NZQ7 19-290)
# T1 construct: whole, on cells; also called PDL1 expressing CHO cells; human PD-L1 transfected CHO cells
# T1 sequence (Q9NZQ7 19-290): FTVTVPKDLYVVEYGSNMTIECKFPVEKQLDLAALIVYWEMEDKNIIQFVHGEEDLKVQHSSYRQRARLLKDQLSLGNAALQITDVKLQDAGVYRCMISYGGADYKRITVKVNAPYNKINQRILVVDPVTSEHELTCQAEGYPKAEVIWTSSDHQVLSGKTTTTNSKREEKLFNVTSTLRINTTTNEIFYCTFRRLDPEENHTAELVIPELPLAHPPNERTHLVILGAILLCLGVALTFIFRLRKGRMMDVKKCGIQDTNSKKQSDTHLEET
# Test: FACS on human PD-L1 transfected CHO cells
# Method: (§1) Example 3: FACS Analysis of Tetra-Specific GNC Antibody Binding to Human PDL1 Transfected CHO Cells The tetra-specific GNC antibodies listed in TABLEs 3 and 4 were tested for binding to Chinese hamster ovary cells (CHO) cells stably expressing full length human ROR1. Antibodies were prepared at 2× final concentration and titrated 1:5 across 3 wells of a 96 well plate in 50 ul of PBS/2% FBS and then 5,000 ROR1-CHO cells in 50 ul PBS/2% FBS were added. This mixture was incubated for 30 minutes on ice, washed once with 200 ul PBS/2% FBS, and then the secondary antibody PE Goat anti-Human IgG Fc at 1:1000 dilution of stock was added, and this mixture was incubated for 30 minutes on ice. Cells were washed 2×200 ul PBS/2% FBS, resuspended in 50 ul PBS/2% FBS and analyzed on a BD LSRFORTESSA and the binding profile is shown in FIG. 6.
row,Binder,binding result
1,B1,binds
2,B2,binds
3,B3,binds
4,B4,binds
5,B5,binds

# Molecular target: T2, human 41BB (human, UniProt Q07011 24-255)
# T2 construct: whole, on cells; also called 41BB expressing CHO cells; human 41BB transfected CHO cells
# T2 sequence (Q07011 24-255): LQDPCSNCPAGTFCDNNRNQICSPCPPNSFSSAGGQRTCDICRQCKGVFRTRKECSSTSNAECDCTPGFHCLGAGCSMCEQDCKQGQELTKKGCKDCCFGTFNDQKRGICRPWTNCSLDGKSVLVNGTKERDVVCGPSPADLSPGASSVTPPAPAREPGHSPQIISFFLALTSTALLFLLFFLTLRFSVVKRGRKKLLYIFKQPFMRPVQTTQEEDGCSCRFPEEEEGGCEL
# Test: FACS on human 41BB transfected CHO cells
# Method: as §1, with “2:” for “3:”, “41BB” for “PDL1”, “a […]” for “full length”, “5. All of the tetra-specific GNC antibodies except for the control SI-27E12 contain a 41BB binding domain, 460C3, 420H5, or 466F6 and bound to 41BB expressing CHO cells with varying intensity.” for “6.”
row,Binder,binding result
1,B1,binds
2,B2,binds
3,B3,binds
4,B4,binds
5,B5,binds

# Molecular target: T3, full-length human ROR1 (human, UniProt Q01973 30-937)
# T3 construct: whole, on cells; also called human ROR1 transfected CHO cells; ROR1-CHO cells
# T3 sequence (Q01973 30-937): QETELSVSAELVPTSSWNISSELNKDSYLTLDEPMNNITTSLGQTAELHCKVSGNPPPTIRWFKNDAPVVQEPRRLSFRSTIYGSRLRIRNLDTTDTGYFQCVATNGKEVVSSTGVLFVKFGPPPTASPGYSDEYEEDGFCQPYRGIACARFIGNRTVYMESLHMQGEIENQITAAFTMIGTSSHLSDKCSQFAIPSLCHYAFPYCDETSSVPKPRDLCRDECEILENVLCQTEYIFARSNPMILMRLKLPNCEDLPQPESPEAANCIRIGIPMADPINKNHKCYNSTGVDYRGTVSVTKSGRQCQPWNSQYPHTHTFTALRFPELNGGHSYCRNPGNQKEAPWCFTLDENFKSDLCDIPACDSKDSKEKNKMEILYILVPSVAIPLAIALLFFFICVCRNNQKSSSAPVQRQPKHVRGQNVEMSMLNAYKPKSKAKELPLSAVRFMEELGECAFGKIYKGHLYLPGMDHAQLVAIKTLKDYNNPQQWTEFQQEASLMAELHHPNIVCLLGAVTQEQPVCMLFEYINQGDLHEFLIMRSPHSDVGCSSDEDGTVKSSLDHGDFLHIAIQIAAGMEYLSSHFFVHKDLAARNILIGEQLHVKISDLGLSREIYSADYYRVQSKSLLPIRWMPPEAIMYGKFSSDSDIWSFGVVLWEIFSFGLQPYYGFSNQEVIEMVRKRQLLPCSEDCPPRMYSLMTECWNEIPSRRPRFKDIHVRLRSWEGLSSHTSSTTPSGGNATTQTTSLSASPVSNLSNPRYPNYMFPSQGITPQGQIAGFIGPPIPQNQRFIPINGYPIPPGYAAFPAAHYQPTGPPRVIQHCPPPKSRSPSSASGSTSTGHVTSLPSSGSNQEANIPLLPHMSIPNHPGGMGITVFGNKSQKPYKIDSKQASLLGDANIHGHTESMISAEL
# Test: FACS on CHO cells stably expressing full-length human ROR1
# Method: as §1, with “Example 1:” for “Example 3:”, “Tetra-Specific Specific” for “Tetra-Specific GNC”, “Human ROR1” for “Human PDL1”, “expressing a […]” for “expressing full length”, “FIG. 4.” for “FIG. 6.”
row,Binder,binding result
1,B1,no binding
2,B2,binds
3,B3,no binding
4,B4,no binding
5,B5,binds
